In US20140274782A1, “AFFINITY REAGENTS AND METHODS FOR DETECTION, PURIFICATION, AND PROTEOMIC ANALYSIS OF METHYLATED PROTEINS” (The Board of Trustees of the Leland Stanford Junior …, priority 2013, published 2014):

Experiments:
[1] = target: T1, G9a and GLP (Homo sapiens, UniProt Q96KQ7+Q9H9B1); test: Triple SILAC pull-down after UNC0638 treatment of 293T cells, DMSO/UNC0638 ratio of protein captured by 3×MBT; type: cell-based; set-up: endogenous in cells; host or cells: HEK 293T; conditions: for Relative to UNC0638 UNC Light: UNC0638 in light SILAC media; for Relative to UNC0638 Average: average of UNC Light and UNC Heavy experiments;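 as to all read-outs here: mass spectrometry (Q-Exactive) SILAC quantitation, DMSO/UNC0638 ratio computed after subtracting 3×MBTD355N mutant pull-down background, only proteins with at least twofold 3×MBT over mutant signal considered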
T1 sequence (Q96KQ7 2-1210 limits assumed): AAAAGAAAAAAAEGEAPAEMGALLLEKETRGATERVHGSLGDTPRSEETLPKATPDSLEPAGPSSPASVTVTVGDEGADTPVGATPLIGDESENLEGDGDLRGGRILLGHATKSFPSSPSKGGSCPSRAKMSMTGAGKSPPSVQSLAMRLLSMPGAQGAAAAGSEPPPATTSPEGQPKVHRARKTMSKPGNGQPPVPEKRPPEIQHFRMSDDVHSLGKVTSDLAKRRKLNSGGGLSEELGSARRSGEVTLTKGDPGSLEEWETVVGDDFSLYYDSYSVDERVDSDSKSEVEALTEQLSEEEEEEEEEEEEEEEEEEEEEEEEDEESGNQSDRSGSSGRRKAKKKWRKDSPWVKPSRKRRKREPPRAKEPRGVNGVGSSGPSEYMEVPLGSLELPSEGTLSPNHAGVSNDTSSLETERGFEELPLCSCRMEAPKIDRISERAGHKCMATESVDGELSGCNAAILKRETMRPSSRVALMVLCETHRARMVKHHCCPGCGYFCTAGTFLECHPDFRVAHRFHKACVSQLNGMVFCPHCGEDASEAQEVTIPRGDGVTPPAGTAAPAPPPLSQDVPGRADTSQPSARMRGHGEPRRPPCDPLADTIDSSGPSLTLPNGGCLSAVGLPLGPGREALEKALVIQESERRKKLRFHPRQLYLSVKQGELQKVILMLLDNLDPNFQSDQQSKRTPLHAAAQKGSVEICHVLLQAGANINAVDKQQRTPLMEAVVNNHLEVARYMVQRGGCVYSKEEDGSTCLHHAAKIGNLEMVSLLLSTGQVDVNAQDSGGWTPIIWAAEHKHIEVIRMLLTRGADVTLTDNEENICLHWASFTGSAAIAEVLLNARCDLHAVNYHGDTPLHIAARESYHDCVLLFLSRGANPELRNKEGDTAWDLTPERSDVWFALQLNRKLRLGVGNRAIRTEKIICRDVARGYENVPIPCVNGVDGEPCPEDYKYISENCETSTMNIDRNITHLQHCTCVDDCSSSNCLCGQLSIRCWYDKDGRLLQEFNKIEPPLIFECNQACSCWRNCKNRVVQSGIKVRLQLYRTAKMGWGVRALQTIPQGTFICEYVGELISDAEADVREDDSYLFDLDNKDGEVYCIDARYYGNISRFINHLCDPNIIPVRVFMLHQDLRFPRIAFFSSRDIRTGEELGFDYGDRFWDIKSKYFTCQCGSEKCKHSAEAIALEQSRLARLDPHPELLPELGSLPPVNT
T1 sequence (Q9H9B1 2-1298 limits assumed): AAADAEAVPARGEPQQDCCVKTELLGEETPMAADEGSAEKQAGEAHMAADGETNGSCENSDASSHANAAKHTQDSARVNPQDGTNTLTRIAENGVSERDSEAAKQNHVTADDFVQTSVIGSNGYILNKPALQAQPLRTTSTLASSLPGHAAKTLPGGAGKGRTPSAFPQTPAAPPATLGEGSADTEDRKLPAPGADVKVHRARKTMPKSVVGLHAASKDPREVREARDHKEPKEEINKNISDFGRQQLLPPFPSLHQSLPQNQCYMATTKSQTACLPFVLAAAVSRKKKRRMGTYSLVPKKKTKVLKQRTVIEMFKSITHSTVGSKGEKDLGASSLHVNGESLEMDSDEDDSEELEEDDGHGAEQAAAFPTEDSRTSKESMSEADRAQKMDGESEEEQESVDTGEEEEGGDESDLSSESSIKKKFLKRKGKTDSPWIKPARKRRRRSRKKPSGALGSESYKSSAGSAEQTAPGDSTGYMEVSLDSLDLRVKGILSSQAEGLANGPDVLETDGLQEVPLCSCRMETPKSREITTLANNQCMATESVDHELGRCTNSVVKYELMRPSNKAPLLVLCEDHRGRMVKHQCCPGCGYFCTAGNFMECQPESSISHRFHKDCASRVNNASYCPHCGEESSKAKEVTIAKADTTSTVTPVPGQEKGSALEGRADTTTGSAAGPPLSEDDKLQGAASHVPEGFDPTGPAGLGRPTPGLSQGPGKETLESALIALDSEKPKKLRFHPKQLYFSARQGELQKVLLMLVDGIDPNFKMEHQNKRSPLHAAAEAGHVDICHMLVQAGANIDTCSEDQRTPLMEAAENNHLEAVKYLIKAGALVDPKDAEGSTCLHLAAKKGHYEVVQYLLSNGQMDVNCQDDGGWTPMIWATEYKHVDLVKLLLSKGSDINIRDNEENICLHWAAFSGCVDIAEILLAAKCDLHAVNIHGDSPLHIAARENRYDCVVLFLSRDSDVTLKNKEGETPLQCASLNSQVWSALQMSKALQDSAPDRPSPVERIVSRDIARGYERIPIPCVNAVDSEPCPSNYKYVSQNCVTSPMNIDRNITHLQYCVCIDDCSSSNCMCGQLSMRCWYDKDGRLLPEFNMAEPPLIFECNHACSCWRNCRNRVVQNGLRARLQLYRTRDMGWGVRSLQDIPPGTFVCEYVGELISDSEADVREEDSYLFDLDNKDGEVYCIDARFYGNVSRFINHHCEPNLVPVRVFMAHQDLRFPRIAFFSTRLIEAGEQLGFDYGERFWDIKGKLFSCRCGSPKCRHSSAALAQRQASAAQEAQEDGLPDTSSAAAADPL

[2] = tested on: 3×MBT domain of L3MBTL1; test: Triple SILAC pull-down, 3xMBT/3xMBTD355N ratio (cytoplasmic, nuclear and chromatin fractions of 293T cells); type: binding, human; conditions: SILAC ratio, pull-down 3xMBT vs 3xMBTD355N; for 3xMBT/D355N UNC Heavy: experiment with UNC0638 in heavy SILAC media; for 3xMBT/D355N UNC Light: experiment with UNC0638 in light SILAC media;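 as to all read-outs here: proteins quantified with MaxQuant, requiring at least two unique peptides and quantification in both label directions, normalized to the mean of proteins from a digested loading control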
[3] = SILAC ratio DMSO/UNC0638 of protein pulled down with 3xMBT

Molecule	Relative to UNC0638 UNC Light [1, 3] [log base 2]	Relative to UNC0638 Average [1] [log base 2]	3xMBT/D355N UNC Heavy [2] [log base 2]	3xMBT/D355N UNC Light [2] [log base 2]	Relative to UNC0638 UNC Heavy ([1]; SILAC ratio DMSO/UNC0638 of protein pulled down with 3xMBT, UNC0638 in heavy SILAC media) [log base 2]
UBA1 (protein, UniProt P22314 2-1058, looked up) Ubiquitin-like …: SSSPLSKKRRVSGPDPKPGSNCSPAQSVLSEVPSVPTNGMAKNGSEADIDEGLYSRQLYVLGHEAMKRLQTSSVLVSGLRGLGVEIAKNIILGGVKAVTLHDQGTAQWADLSSQFYLREEDIGKNRAEVSQPRLAELNSYVPVTAYTGPLVEDFLSGFQVVVLTNTPLEDQLRVGEFCHNRGIKLVVADTRGLFGQLFCDFGEEMILTDSNGEQPLSAMVSMVTKDNPGVVTCLDEARHGFESGDFVSFSEVQGMVELNGNQPMEIKVLGPYTFSICDTSNFSDYIRGGIVSQVKVPKKISFKSLVASLAEPDFVVTDFAKFSRPAQLHIGFQALHQFCAQHGRPPRPRNEEDAAELVALAQAVNARALPAVQQNNLDEDLIRKLAYVAAGDLAPINAFIGGLAAQEVMKACSGKFMPIMQWLYFDALECLPEDKEVLTEDKCLQRQNRYDGQVAVFGSDLQEKLGKQKYFLVGAGAIGCELLKNFAMIGLGCGEGGEIIVTDMDTIEKSNLNRQFLFRPWDVTKLKSDTAAAAVRQMNPHIRVTSHQNRVGPDTERIYDDDFFQNLDGVANALDNVDARMYMDRRCVYYRKPLLESGTLGTKGNVQVVIPFLTESYSSSQDPPEKSIPICTLKNFPNAIEHTLQWARDEFEGLFKQPAENVNQYLTDPKFVERTLRLAGTQPLEVLEAVQRSLVLQRPQTWADCVTWACHHWHTQYSNNIRQLLHNFPPDQLTSSGAPFWSGPKRCPHPLTFDVNNPLHLDYVMAAANLFAQTYGLTGSQDRAAVATFLQSVQVPEFTPKSGVKIHVSDQELQSANASVDDSRLEELKATLPSPDKLPGFKMYPIDFEKDDDSNFHMDFIVAASNLRAENYDIPSADRHKSKLIAGKIIPAIATTTAAVVGLVCLELYKVVQGHRQLDSYKNGFLNLALPFFGFSEPLAAPRHQYYNQEWTLWDRFEVQGLQPNGEEMTLKQFLDYFKTEHKLEITMLSQGVSMLYSFFMPAAKLKERLDQPMTEIVSRVSKRKLGRHVRALVLELCCNDESGEDVEVPYVRYTIR	0.13	0.13	0.55	2.51	
FTSJD2 (protein, UniProt Q8IYT2 1-770, looked up) Cap-specific mRNA …: MSKCRKTPVQQLASPASFSPDILADIFELFAKNFSYGKPLNNEWQLPDPSEIFTCDHTELNAFLDLKNSLNEVKNLLSDKKLDEWHEHTAFTNKAGKIISHVRKSVNAELCTQAWCKFHEILCSFPLIPQEAFQNGKLNSLHLCEAPGAFIASLNHYLKSHRFPCHWSWVANTLNPYHEANDDLMMIMDDRLIANTLHWWYFGPDNTGDIMTLKFLTGLQNFISSMATVHLVTADGSFDCQGNPGEQEALVSSLHYCEVVTALTTLGNGGSFVLKMFTMFEHCSINLMYLLNCCFDQVHVFKPATSKAGNSEVYVVCLHYKGREAIHPLLSKMTLNFGTEMKRKALFPHHVIPDSFLKRHEECCVFFHKYQLETISENIRLFECMGKAEQEKLNNLRDCAIQYFMQKFQLKHLSRNNWLVKKSSIGCSTNTKWFGQRNKYFKTYNERKMLEALSWKDKVAKGYFNSWAEEHGVYHPGQSSILEGTASNLECHLWHILEGKKLPKVKCSPFCNGEILKTLNEAIEKSLGGAFNLDSKFRPKQQYSCSCHVFSEELIFSELCSLTECLQDEQVVVPSNQIKCLLVGFSTLRNIKMHIPLEVRLLESAELTTFSCSLLHDGDPTYQRLFLDCLLHSLRELHTGDVMILPVLSCFTRFMAGLIFVLHSCFRFITFVCPTSSDPLRTCAVLLCVGYQDLPNPVFRYLQSVNELLSTLLNSDSPQQVLQFVPMEVLLKGALLDFLWDLNAAIAKRHLHFIIQREREEIINSLQLQN	0.17	0.13	2.92	3.09	0.09
